{"source": "IntAct's records for PubMed 22807449", "parents": {"B1": {"name": "Natural cytotoxicity triggering receptor 3 (Homo sapiens), O14931 (parent)", "chain": "MAWMLLLILIMVHPGSCALWVSQPPEIRTLEGSSAFLPCSFNASQGRLAIGSVTWFRDEVVPGKEVRNGTPEFRGRLAPLASSRFLHDHQAELHIRDVRGHDASIYVCRVEVLGLGVGTGNGTRLVVEKEHPQLGAGTVLLLRAGFYAVSFLSVAVGSTVYYQGKCLTWKGPRRQLPAVVPAPLPPPCGSSAHLLPPVPGG"}, "B2": {"name": "Natural cytotoxicity triggering receptor 3 (Homo sapiens), O14931 (parent)", "chain": "B1 chain", "partner": "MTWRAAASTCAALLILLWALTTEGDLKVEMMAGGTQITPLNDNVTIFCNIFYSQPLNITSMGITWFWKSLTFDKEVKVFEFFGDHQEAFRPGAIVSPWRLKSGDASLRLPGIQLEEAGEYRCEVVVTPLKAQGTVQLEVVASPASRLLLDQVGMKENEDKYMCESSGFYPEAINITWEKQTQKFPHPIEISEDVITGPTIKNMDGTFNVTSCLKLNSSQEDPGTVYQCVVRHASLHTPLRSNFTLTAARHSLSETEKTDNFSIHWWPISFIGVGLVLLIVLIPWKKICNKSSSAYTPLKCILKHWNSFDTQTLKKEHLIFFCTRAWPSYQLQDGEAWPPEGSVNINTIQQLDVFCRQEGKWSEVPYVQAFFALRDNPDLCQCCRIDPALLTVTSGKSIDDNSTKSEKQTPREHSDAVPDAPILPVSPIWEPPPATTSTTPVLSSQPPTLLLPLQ"}}}
{"variants_of": "B1", "details": "with bag6_human BAG6, P46379"}
{"variant": "N42Q;N121Q", "effect of a mutation on the interaction": "with no effect"}
{"variant": "N42Q", "effect of a mutation on the interaction": "with no effect"}
{"variant": "N68Q;N121Q", "effect of a mutation on the interaction": "with no effect"}
{"variant": "N121Q", "effect of a mutation on the interaction": "with no effect"}
{"variant": "N68Q", "effect of a mutation on the interaction": "with no effect"}
{"variant": "N42Q;N68Q;N121Q", "effect of a mutation on the interaction": "with no effect"}
{"variant": "N42Q;N68Q", "effect of a mutation on the interaction": "with no effect"}
{"variants_of": "B2", "details": "with nr3l1_human NCR3LG1, Q68D85"}
{"variant": "N42Q;N68Q", "effect of a mutation on the interaction": "disrupting interaction strength"}
{"variant": "N42Q;N68Q;N121Q", "effect of a mutation on the interaction": "disrupting interaction strength"}
{"variant": "N42Q;N121Q", "effect of a mutation on the interaction": "disrupting interaction strength"}
{"variant": "N42Q", "effect of a mutation on the interaction": "disrupting interaction strength"}
{"variant": "N121Q", "effect of a mutation on the interaction": "with no effect"}
{"variant": "N68Q;N121Q", "effect of a mutation on the interaction": "decreasing interaction strength"}
{"variant": "N68Q", "effect of a mutation on the interaction": "decreasing interaction strength"}
